Laboratory results from PMC10502012, “Molecular basis of TASL recruitment by the peptide/histidine transporter 1, PHT1” (Nature Communications, 2023).

Target: chicken PHT1 (purified, wild type) (chicken)
Sequence (chain, as listed by the source): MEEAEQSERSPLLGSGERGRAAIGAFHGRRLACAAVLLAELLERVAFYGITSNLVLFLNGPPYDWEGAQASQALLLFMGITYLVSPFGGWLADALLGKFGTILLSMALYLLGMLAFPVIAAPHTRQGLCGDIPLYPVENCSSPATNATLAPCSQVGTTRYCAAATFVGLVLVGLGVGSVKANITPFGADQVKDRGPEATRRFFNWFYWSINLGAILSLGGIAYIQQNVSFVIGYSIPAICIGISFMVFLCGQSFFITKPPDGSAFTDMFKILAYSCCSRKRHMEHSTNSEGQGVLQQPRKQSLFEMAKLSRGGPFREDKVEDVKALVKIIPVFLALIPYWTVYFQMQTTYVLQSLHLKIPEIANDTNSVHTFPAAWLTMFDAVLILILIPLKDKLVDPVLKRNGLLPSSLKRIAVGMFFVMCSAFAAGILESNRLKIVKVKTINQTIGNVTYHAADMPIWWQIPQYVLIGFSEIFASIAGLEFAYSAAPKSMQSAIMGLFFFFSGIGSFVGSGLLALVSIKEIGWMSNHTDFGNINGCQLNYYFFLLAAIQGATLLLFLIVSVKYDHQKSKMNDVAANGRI

Binder | binding result
94 (VHH) VHH: QVQLVESGGGLVQAGGSLRLSCAASGFPVYKASMYWYRQAPGKEREWVAAINSKGWWTEYADSVKGRFTISRDNAKNTVYLQMNSLKPEDTAVYYCNVKDYGYEQLWYDYWGQGTQVTVSA | binds
111 (VHH) VHH: QVQLVESGGGLVQAGGSLRLSCAASGFPVYSSWMRWYRQAPGKEREWVAAINSHGDYTEYADSVKGRFTISRDNAKNTVYLQMNSLKPEDTAVYSCNVKDHGYYMKHYDYWGQGTQVTVSA | binds
121 (VHH) VHH: QVQLVESGGGLVQAGGSLRLSCAASGFPVEQSWMRWYRQAPGKEREWVAAINSWGEYTEYADSVKGRFTISRDNAKNTVYLQMNSLKPEDTAVYYCNVKDQGYEHQRYDYWGQGTQVTVSA | binds
2 [Sybody 2] (VHH) VHH: QVQLVESGGGLVQAGGSLRLSCAASGFPVNTRTMHWYRQAPGKEREWVAAIYSSGQNTFYADSVKGRFTISRDNAKNTVYLQMNSLKPEDTAVYYCNVKDWGNIWEYDYWGQGTQVTVSA | binds
116 (VHH) VHH: QVQLVESGGGPVQAGGSLRLSCAASGFPVNTRTMHWYRQAPGKEREWVAAIYSSGQNTFYADSVKGRFTISRDNAKNTVYLQMNSLKPEDTAVYYCNVKDWGNIWEYDYWGQGTQVTVSA | binds
30 [Sybody 30] (VHH) VHH: QVQLVESGGGLVQAGGSLRLSCAASGFPVKSRRMYWYRQARGKEREWVAAIYSWGATTVYADSVKGRFTISRDNAKNTVYLQMNSLKPEDTAIYYCNVKDWGSWYQYYDYWGQGTQVTVSA | binds
80 (VHH) VHH: QVQLVESGGGSVQAGGSLRLSCAASGSISSITYLGWFRQAPGKEREGVAALFTWWGWTYYADSVKGRFTVSLDNAKNTVYLQMNSLKPEDTALYYCAAASEGMYWPLTKNHYSYWGQGTQVTVSA | binds
6 [Sybody 6] (VHH) VHH: QVQLVESGGGLVQAGGSLRLSCAASGFPVYATWMYWYRQAPGKEREWVAAISSTGWSTYYADSVKGRFTISRDNAKNTVYLQMNSLKPEDTAVYYCNVKDVGFWWDQYDYWGQGTQVTVSA | binds
134 (VHH) VHH: QVQLVESGGGLVQAGGSLRLSCAASGFPVYQTYMYWYRQAPGKEREWVAAINSTGYFTRYADSVKGRFTISRDNAKNTVYLQMNSLKPEDTAVYYCNVKDLGWWSEQYDYWGQGTQVTVSA | binds
25 [Sybody 25] (VHH) VHH: QVQLVESGGGSVQAGGSLRLSCAASGNIWDIRYLGWFRQAPGKEREGVAALETQYGYTYYADSVKGRFTVSLDNAKNTVYLQMNSLKPEDTALYYCAAADIGYYTPLIHVGWYSYWGQGTQVTVSA | binds
66 (VHH) VHH: QVQLVESGGGLVQAGGSLRLSCAASGFPVDTSYMYWYRQAPGKEREWVAAIWSWGQWTYYADSVKGRFTISRDNAKNTVYLQMNSLKPEDTAVYYCAVYVGQYYIGQGTQVTVSA | binds
87 (VHH) VHH: QVQLVESGGGLVQAGGSLRLSCAASGFPVVHLSMAWYRQAPGKEREWVAAINSFGDHTHYADSVKGRFTISRDNAKNTVYLQMNSLKPEDTAVYYCNVKDSGWFWTQYDYWGQGTQVTVSA | binds
100 (VHH) VHH: QVQLVESGGGLVQAGGSLRLSCAASGFPVAQRVMHWYRQAPGKEREWVAAIHSAGAQTFYADSVKGRFTISRDNAKNTVYLQMNSLKPEDTAVYYCNVKDDGKYYWLYDYWGQGTQVTVSA | binds
139 (VHH) VHH: QVQLVESGGGSVQAGGSLRLSCAASGHIRWIKYLGWFRQAPGKEREGVAALYTYEGQTYYADSVKGRFTVSLDNAKNTVYLQMNSLKPEDTALYYCAAAYFGAFYPLSYDAYYYWGQGTQVTVSA | binds
20 [Sybody 20] (VHH) VHH: QVQLVESGGGSVQAGGSLRLSCAASGNIWTIRYLGWFRQAPGKEREGVAALDTASGSTYYADSVKGRFTVSLDNAKNTVYLQMNSLKPEDTALYYCAAAWWGYTVPLMWQHYYYWGQGTQVTVSA | binds
19 [Sybody 19] (VHH) VHH: QVQLVESGGGSVQAGGSLRLSCAASGNIHAINYLGWFRQAPGKEREGVAALDTWVGYTYYADSVKGRFTVSLDNAKNTVYLQMNSLKPEDTALYYCAAAEWGWQGPLKMRAYEYWGQGTQVTVSA | binds
55 (VHH) VHH: QVQLVESGGGLVQAGGSLRLSCAASGFPVAARWMRWYRQAPGKEREWVAAINSFGDYTEYADSVKGRFTISRDNAKNTVYLQMNSLKPEDTAVYYCNVKDYGSQWWAYDYWGQGTQVTVSA | binds
104 (VHH) VHH: QVQLVESGGGLVQAGGSLRLSCAASGFPVWNSWMRWYRQAPGKEREWVAAINSYGDHTEYADSVKGRFTISRDNAKNTVYLQMNSLKPEDTAVYYCNVKDYGEWWNNYDYWGQGTQVTVSA | binds
57 (VHH) VHH: QVQLVESGGGLVQAGGSLRLSCAASGFPVKQKWMRWYRQAPGKEREWVAAINSNGDYTEYADSVKGRFTISRDNAKNTVYLQMNSLKPEDTAVYYCNVRDYGDQLFEYDYWGQGTQVTVSA | binds
105 (VHH) VHH: QVQLVESGGGLVQAGGSLRLSCAASGFPVYIKWMRWYRQAPGKEREWVAAISSNGEYTEYADSVKGRFTISRDNAKNTVYLQMNSLKPEDTAVYYCNVKDYGHTQWRYDYWGQGTQVTVSA | binds
58 (VHH) VHH: QVQLVESGGGLVQAGGSLRLSCAASGFPVWTRWMRWYRQAPGKEREWVAAINSYGDYTEYADSVKGRFTISRDNAKNTVYLQMNSLKPEDTAVYYCNVRDNGAYWHYYDYWGQGTQVTVSA | binds
109 (VHH) VHH: QVQLVESGGGLVQAGGSLRLSCAASGFPVGHKWMRWYRQAPGKEREWVAAINSHGEFTEYADSVKGRFTISRDNAKNTVYLQMNSLKPEDTAVYYCNVKDYGWTAWAYDYWGQGTQVTVSA | binds

Now from value to binder:

binding result | Binder
binds | 24 [Sybody 24] (VHH) VHH: QVQLVESGGGSVQAGGSLRLSCAASGAIERIWYLGWFRQAPGKEREGVAALITFTGHTYYADSVKGRFTVSLDNAKNTVYLQMNSLKPEDTALYYCAAAYDGWFSPLTTRRYRYWGQGTQVTVSA
binds | 31 [Sybody 31] (VHH) VHH: QVQLVESGGGLVQAGGSLRLSCAASGFPVSQNWMWWYRQAPGKEREWVAAISSKGQTTHYADSVKGRFTISRDNAKNTVYLQMNSLKPEDTAVYYCNVKDWGAYWYSYDYWGQGTQVTVSA
binds | 3 [Sybody 3] (VHH) VHH: QVQLVESGGGLVQAGGSLRLSCAASGFPVWAAYMFWYRQAPGKEREWVAAIGSTGWYTRYADSVKGRFTISRDNAKNTVYLQMNSLKPEDTAVYYCHVKDAGWNWWAYDYWGQGTQVTVSA
binds | 140 (VHH) VHH: QVQLVESGGGLVQAGGSLRLSCAASGFPVWATYMYWYRQAPGKEREWVAAIGSTGWFTVYADSVKGRFTISRDNAKNTVYLQMNSLKPEDTAVYYCNVKDYGWFEYRYDYWGQGTQVTVSA
binds | 101 (VHH) VHH: QVQLVESGGGLVQAGGSLRLSCAASGFPVWATYMYWYRQAPGKEREWVAAIGSTGWFTVYADSVKGRFTISRDNAKNTVYLQMNSLKPEDTAVYYCNVKDRGWQTAQYDYWGQGTQVTVSA
binds | 88 (VHH) VHH: QVQLVESGGGLVQAGGSLRLSCAASGFPVWHSYMYWYRQAPGKEREWVAAIGSTGWYTTYADSVKGRFTISRDNAKNTVYLQMNSLKPEDTAVYYCNVKDQGWIHKQYDYWGQGTQVTVSA
binds | 44 [Sybody 44] (VHH) VHH: QVQLVESGGGLVQAGGSLRLSCAASGFPVDATSMYWYRQAPGKEREWVAAINSTGWYTEYADSVKGRFTISRDNAKNTVYLQMNSLKPEDTAVYYCNVKDYGWYYWAYDYWGQGTQVTVSA
binds | 48 [Sybody 48] (VHH) VHH: QVQLVESGGGLVQAGGSLRLSCAASGFPVRWHYMYWYRQAPGKEREWVAAISSHGTYTYYADSVKGRFTISRDNAKNTVYLQMNSLKPEDTAVYYCSVKDIGRWFSKYDYWGQGTQVTVSA
binds | 89 (VHH) VHH: QVQLVESGGGLVQAGGSLRLSCAASGFSVNYSYMYWYRQAPGKEREWVAAISSWGWYTVYADSVKGRFTISRDNAKNTVYLQMNSLKPEDTAVYYCNVKDRGNDDSSYDYWGQGTQVTVSA
binds | 23 [Sybody 23] (VHH) VHH: QVQLVESGGGSAQAGGSLRLSCAASGNIAHIYYLGWFRQAPGKEREGVAALMTFTGWTYYADSVKGRFTVSLDNAKNTVYLQMNSLKPEDTALYYCAAATHGNWNPLQSDRYQYWGQGTQVTVSA
binds | 1 [Sybody 1] (VHH) VHH: QVQLVESGGGLVQAGGSLRLSCAASGFPVYSRHMYWYRQAPGKEREWVAAIASQGMKTWYADSVKGRFTISRDNAKNTVYLQMNSLKPEDTAVYYCNVKDTGQWWGLYDYWGQGTQVTVSA
